Results as given in US20200317776A1 (published 2020).

T1: human TREM2 Fc fusion (entire TREM2 ECD; only one Fc arm fused to TREM2) (human, UniProt Q9NZC2 19-174)
T1 construct: also called huTREM2-Fc; recombinant hTREM2
T1 sequence: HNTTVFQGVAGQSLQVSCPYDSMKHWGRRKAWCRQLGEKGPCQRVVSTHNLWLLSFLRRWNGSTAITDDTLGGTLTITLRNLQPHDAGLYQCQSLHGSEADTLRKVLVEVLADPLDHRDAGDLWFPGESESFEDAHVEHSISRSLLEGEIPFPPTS

T2: human TREM2 expressed on cells (human, UniProt Q9NZC2 19-230)
T2 construct: BW5147.G.1.4 cells stably expressing human TREM2 together with Dap12, or endogenous TREM2 of primary human myeloid cells; also called huT2 BW; hTREM2 expressing cell line
T2 sequence: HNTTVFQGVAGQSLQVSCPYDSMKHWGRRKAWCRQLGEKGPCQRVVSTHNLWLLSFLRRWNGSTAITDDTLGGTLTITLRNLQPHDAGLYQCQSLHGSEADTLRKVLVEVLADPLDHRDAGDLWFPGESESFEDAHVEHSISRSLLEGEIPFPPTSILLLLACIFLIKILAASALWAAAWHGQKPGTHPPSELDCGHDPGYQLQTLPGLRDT


Tests used:
[1] = target: human TREM2/DAP12 fusion protein (human, UniProt O43914 41-113, limits assumed); test: cell-based or functional assay
[2] = target: T1, human TREM2 Fc fusion (entire TREM2 …); test: BLI, Fab, monovalent
Procedure: Briefly, IgG's were loaded on-line onto AHQ sensors. Sensors were equilibrated off-line in assay buffer for 30 minutes and then monitored on-line for 60 seconds for baseline establishment. For avid binding measurement, sensors with loaded IgGs were exposed to 100 nM antigen (human TREM2 Fc fusion using the entire TREM2 ECD; only one Fc arm was fused to TREM2) for 3 minutes, afterwards they were transferred to assay buffer for 3 minutes for off-rate measurement. Monovalent binding measurements were obtained by loading human TREM2 Fe fusion antigens to AHQ sensor and followed by exposure to 100 nM TREM2 antibody Fab. Kinetics data were fit using a 1:1 binding model in the data analysis software provided by ForteBio. Assay was run at room temperature (25° C.).

[3] = target: T2, human TREM2 expressed on cells; test: FACS, hTREM2 BW cells
Procedure: To examine cell binding of anti-TREM2 antibodies, recombinant, human TREM2-expressing BW5147.G.1.4 cells (ATCC® TIB48™) were established by stably expressing either mouse TREM2 or human TREM2 together with Dap12 using viral infection. Cells were harvested by scraping, washed in PBS, counted and plated on 96-well U bottom plates at 1)(10⁵ cells/well. The plates were spun at 1,400 rpm for 3 minutes and primary anti-TREM2 or control antibodies were added in FACS buffer (PBS H2% FBS) and incubated on ice for one hour. Cells were subsequently centrifuged as before and washed thrice with FACS buffer. Cells were then incubated with anti-human PE conjugated secondary antibody (BD Biosciences) in FACS buffer for 30 minutes on ice. Cells were again washed thrice with FACS buffer and analyzed on a BD FACS Canto. Binding was measured as mean fluorescence intensity in the APC channel.

Sequence of human TREM2/DAP12 fusion protein (O43914 other isoform, or with tags, fused parts or gaps limits assumed): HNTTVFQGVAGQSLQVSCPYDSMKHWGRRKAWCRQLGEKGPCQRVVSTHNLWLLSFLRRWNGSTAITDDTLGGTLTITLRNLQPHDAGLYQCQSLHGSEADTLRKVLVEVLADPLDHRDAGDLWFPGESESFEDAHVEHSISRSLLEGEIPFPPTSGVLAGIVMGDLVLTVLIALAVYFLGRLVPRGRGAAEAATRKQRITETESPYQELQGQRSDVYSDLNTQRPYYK

Binder | Soluble luciferase activation at 10 µg/ml Fold over control [1] [fold over control] | Kd [2] [nM] | cell binding (FOB) [3] [FOB]
AL2p-h19 (antibody, human IgG1, V domains shown, humanized, human IgG1; Fab and IgG formats under one id) VH: QVQLVQSGAEVKKPGSSVKVSCKASGYAFSSSWMNWVRQAPGQGLEWMGRIYPGDGDTNYAQKFQGRATITADTSTSTAYMELSSLRSEDTAVYYCARLLRNQPGESYAMDYWGQGTLVTVSS VL: DIVMTQTPLSLSVTPGQPASISCRSSQSLVHSNGYTYLHWYLQKPGQSPQLLIYKVSNRFSGVPDRFSGSGSGTDFTLKISRVEAEDVGVYYCSQSTRVPYTFGQGTKLEIK | 4.97 | 193 | 87
AL2p-h32 (antibody, human IgG1, V domains shown, humanized, human IgG1; Fab and IgG formats under one id) VH: QVQLVQSGAEVKKPGSSVKVSCKASGYAFSSSWMNWVRQAPGQGLEWIGRIYPGDGDTNYNGEFRVRATLTADTSTTTAYMELSSLRSEDTAVYFCARLLRNQPGESYAMDYWGQGTLVTVSS VL: DVVMTQTPLSLSVTPGQPASISCRSSQSLVHSNGYTYLHWYLQKPGQSPQLLIYKVSNRFSGVPDRFSGSGSGTDFTLKISRVEAEDLGVYFCSQSTRVPYTFGQGTKLEIK | 5.6 | 144 | 81
AL2p-h21 (antibody, human IgG1, V domains shown, humanized, human IgG1; Fab and IgG formats under one id) VH: QVQLVQSGAEVKKPGASVKVSCKASGYAFSSSWMNWVRQAPGQGLEWMGRIYPGDGDTNYAQKFQGRVTMTRDTSTSTVYMELSSLRSEDTAVYYCARLLRNQPGESYAMDYWGQGTLVTVSS VL: DVVMTQTPLSLSVTPGQPASISCRSSQSLVHSNGYTYLHWYLQKPGQSPQLLIYKVSNRFSGVPDRFSGSGSGTDFTLKISRVEAEDLGVYFCSQSTRVPYTFGQGTKLEIK | 6.28 | 137 | 76
AL2p-h76 (antibody, human IgG1, V domains shown, humanized, human IgG1; Fab and IgG formats under one id) VH: QVQLVQSGAEVKKPGASVKVSCKASGYAFSSSWMNWVRQAPGQRLEWIGRIYPGDGDTNYAQKFQGRATITADTSASTAYMELSSLRSEDTAVYFCARLLRNQPGESYAMDYWGQGTLVTVSS VL: DVVMTQSPDSLAVSLGERATINCRSSQSLVHSNGYTYLHWYQQKPGQSPKLLIYKVSNRFSGVPDRFSGSGSGTDFTLTISSLQAEDVAVYYCSQSTRVPYTFGGGTKVEIK | 6.57 | 83 | 86
AL2p-h33 (antibody, human IgG1, V domains shown, humanized, human IgG1; Fab and IgG formats under one id) VH: QVQLVQSGAEVKKPGSSVKVSCKASGYAFSSSWMNWVRQAPGQGLEWIGRIYPGDGDTNYAQKFQGRATLTADTSTTTAYMELSSLRSEDTAVYFCARLLRNQPGESYAMDYWGQGTLVTVSS VL: DVVMTQTPLSLSVTPGQPASISCRSSQSLVHSNGYTYLHWYLQKPGQSPQLLIYKVSNRFSGVPDRFSGSGSGTDFTLKISRVEAEDLGVYFCSQSTRVPYTFGQGTKLEIK | 6.21 | 225 | 74
AL2p-h26 (antibody, human IgG1, V domains shown, humanized, human IgG1; Fab and IgG formats under one id) VH: QVQLVQSGAEVKKPGASVKVSCKASGYAFSSSWMNWVRQAPGQRLEWIGRIYPGDGDTNYAQKFQGRVTITADTSASTAYMELSSLRSEDTAVYYCARLLRNQPGESYAMDYWGQGTLVTVSS VL: DVVMTQTPLSLSVTPGQPASISCRSSQSLVHSNGYTYLHWYLQKPGQSPQLLIYKVSNRFSGVPDRFSGSGSGTDFTLKISRVEAEDLGVYFCSQSTRVPYTFGQGTKLEIK | 7.25 | 95.3 | 78
AL2p-h30 (antibody, human IgG1, V domains shown, humanized, human IgG1; Fab and IgG formats under one id) VH: QVQLVQSGAEVKKPGASVKVSCKASGYAFSSSWMNWVRQAPGQGLEWMGRIYPGDGDTNYAQKFQGRVTMTADTSTSTAYMELSSLRSEDTAVYYCARLLRNQPGESYAMDYWGQGTLVTVSS VL: DVVMTQTPLSLSVTPGQPASISCRSSQSLVHSNGYTYLHWYLQKPGQSPQLLIYKVSNRFSGVPDRFSGSGSGTDFTLKISRVEAEDLGVYFCSQSTRVPYTFGQGTKLEIK | 6.01 | 181 | 88
AL2p-h23 (antibody, human IgG1, V domains shown, humanized, human IgG1; Fab and IgG formats under one id) VH: QVQLVQSGAEVKKPGASLKISCKASGYAFSSSWMNWVRQAPGQGLEWIGRIYPGDGDTNYAQKFQGRATLTADTSTSTAYMELSSLRSEDTAVYYCARLLRNQPGESYAMDYWGQGALVTVSS VL: DVVMTQTPLSLSVTPGQPASISCRSSQSLVHSNGYTYLHWYLQKPGQSPQLLIYKVSNRFSGVPDRFSGSGSGTDFTLKISRVEAEDLGVYFCSQSTRVPYTFGQGTKLEIK | 5.38 | 334 | 76
AL2p-h59 (antibody, human IgG1, V domains shown, humanized, human IgG1; Fab and IgG formats under one id) VH: QVQLVQSGAEVKKPGASVKVSCKASGYAFSSSWMNWVRQAPGQRLEWMGRIYPGDGDTNYAQKFQGRVTITRDTSASTAYMELSSLRSEDTAVYYCARLLRNQPGESYAMDYWGQGTLVTVSS VL: DIVMTQSPLSLPVTPGEPASISCRSSQSLVHSNGYTYLHWYLQKPGQSPQLLIYKVSNRFSGVPDRFSGSGSGTDFTLKISRVEAEDVGVYYCSQSTRVPYTFGGGTKVEIK | 7.06 | 130 | 69
AL2p-h44 (antibody, human IgG1, V domains shown, humanized, human IgG1; Fab and IgG formats under one id) VH: QVQLVQSGAEVKKPGASLKVSCKASGYAFSSSWMNWVRQAPGQRLEWIGRIYPGDGDTNYAQKFQGRATLTADTSASTAYMELSSLRSEDTAVYFCARLLRNQPGESYAMDYWGQGTLVTVSS VL: DVVMTQTPLSLSVTPGQPASISCRSSQSLVHSNGYTYLHWYLQKPGQSPQLLIYKVSNRFSGVPDRFSGSGSGTDFTLKISRVEAEDVGVYYCSQSTRVPYTFGQGTKLEIK | 7.29 | 180 | 80
AL2p-h22 (antibody, human IgG1, V domains shown, humanized, human IgG1; Fab and IgG formats under one id) VH: QVQLVQSGAEVKKPGASVKVSCKASGYAFSSSWMNWVRQAPGQGLEWIGRIYPGDGDTNYAQKFQGRVTMTADTSTSTVYMELSSLRSEDTAVYYCARLLRNQPGESYAMDYWGQGTLVTVSS VL: DVVMTQTPLSLSVTPGQPASISCRSSQSLVHSNGYTYLHWYLQKPGQSPQLLIYKVSNRFSGVPDRFSGSGSGTDFTLKISRVEAEDLGVYFCSQSTRVPYTFGQGTKLEIK | 5 | 325 | 61
AL2p-h47 (antibody, human IgG1, V domains shown, humanized, human IgG1; Fab and IgG formats under one id) VH: QVQLVQSGAEVKKPGASVKVSCKASGYAFSSSWMNWVRQAPGQGLEWMGRIYPGDGDTNYNGEFRVRVTMTRDTSTSTVYMELSSLRSEDTAVYYCARLLRNQPGESYAMDYWGQGTLVTVSS VL: DVVMTQTPLSLSVTPGQPASISCRSSQSLVHSNGYTYLHWYLQKPGQSPQLLIYKVSNRFSGVPDRFSGSGSGTDFTLKISRVEAEDVGVYYCSQSTRVPYTFGQGTKLEIK | 9.28 | 161 | 93
AL2p-h34 (antibody, human IgG1, V domains shown, humanized, human IgG1; Fab and IgG formats under one id) VH: QVQLVQSGAEVKKPGSSVKVSCKASGYAFSSSWMNWVRQAPGQGLEWIGRIYPGDGDTNYAQKFQGRATITADTSTSTAYMELSSLRSEDTAVYFCARLLRNQPGESYAMDYWGQGTLVTVSS VL: DVVMTQTPLSLSVTPGQPASISCRSSQSLVHSNGYTYLHWYLQKPGQSPQLLIYKVSNRFSGVPDRFSGSGSGTDFTLKISRVEAEDLGVYFCSQSTRVPYTFGQGTKLEIK | 6.92 | 142 | 84
AL2p-h35 (antibody, human IgG1, V domains shown, humanized, human IgG1; Fab and IgG formats under one id) VH: QVQLVQSGAEVKKPGSSVKVSCKASGYAFSSSWMNWVRQAPGQGLEWMGRIYPGDGDTNYAQKFQGRATITADTSTSTAYMELSSLRSEDTAVYYCARLLRNQPGESYAMDYWGQGTLVTVSS VL: DVVMTQTPLSLSVTPGQPASISCRSSQSLVHSNGYTYLHWYLQKPGQSPQLLIYKVSNRFSGVPDRFSGSGSGTDFTLKISRVEAEDLGVYFCSQSTRVPYTFGQGTKLEIK | 6.81 | 127 | 69
AL2p-h42 (antibody, human IgG1, V domains shown, humanized, human IgG1; Fab and IgG formats under one id) VH: QVQLVQSGAEVKKPGASVKVSCKASGYAFSSSWMNWVRQAPGQRLEWMGRIYPGDGDTNYAQKFQGRVTITRDTSASTAYMELSSLRSEDTAVYYCARLLRNQPGESYAMDYWGQGTLVTVSS VL: DVVMTQTPLSLSVTPGQPASISCRSSQSLVHSNGYTYLHWYLQKPGQSPQLLIYKVSNRFSGVPDRFSGSGSGTDFTLKISRVEAEDVGVYYCSQSTRVPYTFGQGTKLEIK | 9.29 | 141 | 79
